Numbered stars: 1 amine (or outer) side, 2 acyl side, 3 side chain; on linkers, the order of the positions; unused ones are H or OH. Square brackets hold non-standard residues; d marks the D form. Side chains are listed from the residue outwards. Ends that are not written are not given here. * marks the point of attachment. C18 diacid = O=C(O)CCCCCCCCCCCCCCCCC(=O)*; γGlu = O=C(O)[C@H](CCC(=O)[*:2])N[*:1]; AEEA = NCCOCCOCC(=O)O
B1: N^α-([Leu^27]Glucagonyl) … (peptide)
peptide: HSQGTFTSDYSKYLDSRRAQDFVQWLLNTK
modifications: C-terminal Lys (position 30): N-epsilon acylated with the substituent printed in the name

Biological target: T1, glucagon receptor (UniProt P47871 26-477, limits assumed)
T1 sequence (P47871 26-477 limits assumed): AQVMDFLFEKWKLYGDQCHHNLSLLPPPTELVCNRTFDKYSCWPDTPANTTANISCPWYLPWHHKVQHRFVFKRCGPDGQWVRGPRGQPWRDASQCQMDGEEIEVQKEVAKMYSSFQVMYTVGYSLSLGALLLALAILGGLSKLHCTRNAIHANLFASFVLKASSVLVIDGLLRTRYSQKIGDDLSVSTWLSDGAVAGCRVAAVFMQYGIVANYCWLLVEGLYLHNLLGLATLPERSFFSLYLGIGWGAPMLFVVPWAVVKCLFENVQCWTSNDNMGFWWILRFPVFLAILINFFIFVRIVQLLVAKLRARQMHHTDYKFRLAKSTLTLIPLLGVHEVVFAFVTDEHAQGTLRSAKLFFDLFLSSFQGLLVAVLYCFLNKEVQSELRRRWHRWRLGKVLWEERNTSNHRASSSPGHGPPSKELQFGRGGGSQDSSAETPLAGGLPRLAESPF
Test: cell-based or functional assay

| Assay (I) Glucagon [EC50] | Binder |
| --- | --- |
| 0.055 nM | HSQGTFTSDYSKYLDSRRAQDFVQWLLK([γGlu-γGlu-AEEA-AEEA-γGlu-C18 diacid])T |
| 0.056 nM | B1 |
| 0.044 nM | HSQ[dF]TFTSDYSKYLDSRRAQDFVK([γGlu-γGlu-AEEA-AEEA-γGlu-C18 diacid])WLLST |
| 0.095 nM | HSQGTFTSDYSKYLDSRRAQDFVQWLLNK([γGlu-γGlu-AEEA-AEEA-γGlu-C18 diacid]) |

Biological target: T1, glucagon receptor
Test: cell-based or functional assay
Remark: another data set of the same source

| Assay (I) Glucagon [EC50] | Binder |
| --- | --- |
| 0.055 nM | HSQGTFTSDYSKYLDSRRAQDFVQWLLK([γGlu-γGlu-AEEA-AEEA-γGlu-C18 diacid])T |
| 0.056 nM | B1 |
| 0.095 nM | HSQGTFTSDYSKYLDSRRAQDFVQWLLNK([γGlu-γGlu-AEEA-AEEA-γGlu-C18 diacid]) |
